Measured values published in IntAct's records for PubMed 21460798.

B1: APC/C activator protein CDH1 (Saccharomyces cerevisiae), P53197 (parent)
chain: MSTNLNPFMNNTPSSSPLKGSESKRVSKRPISSSSSASLLSSPSRRSRPSTVYGDRYIPSRTDIDFNSIVSISSMASVPALNPSSTEDQVEYQKERQAHETYNTLLKNELFGEMLSKDTVGSESSIDRIKNTRPSTRGNVHAENTTRHGYELERVSTPPPEAAGLEEFSPHSTPVTPRRLFTSQQDEITRPSSNSVRGASLLTYQQRKGRRLSAASLLQSQFFDSMSPVRPDSKQLLLSPGKQFRQIAKVPYRVLDAPSLADDFYYSLIDWSSTDVLAVALGKSIFLTDNNTGDVVHLCDTENEYTSLSWIGAGSHLAVGQANGLVEIYDVMKRKCIRTLSGHIDRVACLSWNNHVLTSGSRDHRILHRDVRMPDPFFETIESHTQEVCGLKWNVADNKLASGGNDNVVHVYEGTSKSPILTFDEHKAAVKAMAWSPHKRGVLATGGGTADRRLKIWNVNTSIKMSDIDSGSQICNMVWSKNTNELVTSHGYSKYNLTLWDCNSMDPIAILKGHSFRVLHLTLSNDGTTVVSGAGDETLRYWKLFDKPKAKVQPNSLIFDAFNQIR
partner: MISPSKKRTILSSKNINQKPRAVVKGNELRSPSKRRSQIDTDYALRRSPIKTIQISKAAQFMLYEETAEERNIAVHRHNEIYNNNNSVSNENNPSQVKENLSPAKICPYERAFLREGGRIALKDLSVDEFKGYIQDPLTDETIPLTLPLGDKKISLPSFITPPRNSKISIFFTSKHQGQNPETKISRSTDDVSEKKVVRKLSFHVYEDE
B2: APC/C activator protein CDH1 (Saccharomyces cerevisiae), P53197 (parent)
chain: B1 chain
B3: APC/C-CDH1 modulator 1 (Saccharomyces cerevisiae), Q08981 (parent)
chain: B1 partner
partner: B1 chain
B4: Probable serine/threonine-protein kinase HSL1 (Saccharomyces cerevisiae), P34244 (parent)
chain: MTGHVSKTSHVPKGRPSSLAKKAAKRAMAKVNSNPKRASGHLERVVQSVNDATKRLSQPDSTVSVATKSSKRKSRDTVGPWKLGKTLGKGSSGRVRLAKNMETGQLAAIKIVPKKKAFVHCSNNGTVPNSYSSSMVTSNVSSPSIASREHSNHSQTNPYGIEREIVIMKLISHTNVMALFEVWENKSELYLVLEYVDGGELFDYLVSKGKLPEREAIHYFKQIVEGVSYCHSFNICHRDLKPENLLLDKKNRRIKIADFGMAALELPNKLLKTSCGSPHYASPEIVMGRPYHGGPSDVWSCGIVLFALLTGHLPFNDDNIKKLLLKVQSGKYQMPSNLSSEARDLISKILVIDPEKRITTQEILKHPLIKKYDDLPVNKVLRKMRKDNMARGKSNSDLHLLNNVSPSIVTLHSKGEIDESILRSLQILWHGVSRELITAKLLQKPMSEEKLFYSLLLQYKQRHSISLSSSSENKKSATESSVNEPRIEYASKTANNTGLRSENNDVKTLHSLEIHSEDTSTVNQNNAITGVNTEINAPVLAQKSQFSINTLSQPESDKAEAEAVTLPPAIPIFNASSSRIFRNSYTSISSRSRRSLRLSNSRLSLSASTSRETVHDNEMPLPQLPKSPSRYSLSRRAIHASPSTKSIHKSLSRKNIAATVAARRTLQNSASKRSLYSLQSISKRSLNLNDLLVFDDPLPSKKPASENVNKSEPHSLESDSDFEILCDQILFGNALDRILEEEEDNEKERDTQRQRQNDTKSSADTFTISGVSTNKENEGPEYPTKIEKNQFNMSYKPSENMSGLSSFPIFEKENTLSSSYLEEQKPKRAALSDITNSFNKMNKQEGMRIEKKIQREQLQKKNDRPSPLKPIQHQELRVNSLPNDQGKPSLSLDPRRNISQPVNSKVESLLQGLKFKKEPASHWTHERGSLFMSEHVEDEKPVKASDVSIESSYVPLTTVATSSRDPSVLAESSTIQKPMLSLPSSFLNTSMTFKNLSQILADDGDDKHLSVPQNQSRSVAMSHPLRKQSAKISLTPRSNLNANLSVKRNQGSPGSYLSNDLDGISDMTFAMEIPTNTFTAQAIQLMNNDTDNNKINTSPKASSFTKEKVIKSAAYISKEKEPDNSDTNYIPDYTIPNTYDEKAINIFEDAPSDEGSLNTSSSESDSRASVHRKAVSIDTMATTNVLTPATNVRVSLYWNNNSSGIPRETTEEILSKLRLSPENPSNTHMQKRFSSTRGSRDSNALGISQSLQSMFKDLEEDQDGHTSQADILESSMSYSKRRPSEESVNPKQRVTMLFDEEEEESKKVGGGKIKEEHTKLDNKISEESSQLVLPVVEKKENANNTENNYSKIPKPSTIKVTKDTAMESNTQTHTKKPILKSVQNVEVEEAPSSDKKNWFVKLFQNFSSHNNATKASKNHVTNISFDDAHMLTLNEFNKNSIDYQLKNLDHKFGRKVVEYDCKFVKGNFKFKIKITSTPNASTVITVKKRSKHSNTSSNKAFEKFNDDVERVIRNAGRS
partner: B1 chain

Variants of: B1
Settings: with acm1_yeast ACM1, Q08981

Row | Variant | effect of a mutation on the interaction
1 | P258A | disrupting interaction
2 | L255V | disrupting interaction

The next lines start with the values.

Row | effect of a mutation on the interaction | Variant
3 | increasing interaction | D536A
4 | disrupting interaction | G535A

Variants of: B2
Settings: with hsl1_yeast HSL1, P34244

Row | Variant | effect of a mutation on the interaction
5 | L255V | disrupting interaction
6 | P258A | disrupting interaction

Second part, the variant after the results:

Row | effect of a mutation on the interaction | Variant
7 | disrupting interaction | G535A
8 | increasing interaction | D536A

Variants of: B3
Settings: with cdh1_yeast CDH1, P53197

Row | effect of a mutation on the interaction | Variant
9 | disrupting interaction | K98A
10 | disrupting interaction | E66A
11 | disrupting interaction | N100A
12 | disrupting interaction | E65D
13 | disrupting interaction | R119A
14 | disrupting interaction | E99A
15 | disrupting interaction | L122A

Variants of: B3
Settings: with cdh1_yeast CDH1, P53197
Remark: another data set of the same source

Row | effect of a mutation on the interaction | Variant
16 | decreasing interaction | E66A
17 | decreasing interaction | E65A
18 | decreasing interaction | E69A
19 | decreasing interaction | T67A

Variants of: B3
Settings: with cdh1_yeast CDH1, P53197
Remark: another data set of the same source

Row | effect of a mutation on the interaction | Variant
20 | disrupting interaction | E66D
21 | disrupting interaction | E65A
22 | disrupting interaction | E69A
23 | disrupting interaction | T67A

Variants of: B3
Settings: with cdh1_yeast CDH1, P53197
Remark: another data set of the same source

Row | effect of a mutation on the interaction | Variant
24 | disrupting interaction | R8A
25 | disrupting interaction | L11D

Variants of: B4
Settings: with cdh1_yeast CDH1, P53197

Row | effect of a mutation on the interaction | Variant
26 | disrupting interaction | E776A
27 | disrupting interaction | K775A
28 | disrupting interaction | N777A
29 | disrupting interaction | E781A
